Measurements taken from patent publication US20060193849A1 (ANTISOMA, published 2006).

Columns and labels:
[1] = target: T1, MUC-1 gene product, the membrane mucin glycoprotein (polymorphic epithelial mucin or PEM) (human, UniProt P15941 24-1255); assay: flow cytometry equilibrium binding on MCF7 cells; after pre-incubation in PBS for 1 h at 37 C against no pre-incubation
T1 construct: whole, on cells; SKOV-3 is also named in the method
Experimental: (§1) Bound antibodies were detected under the same conditions, as described in the section entitled binding assays above.
(§2) The median fluorescence intensity (MFI) was determined as described in the binding assays section above and the background fluorescence was subtracted. Equilibrium constants were determined by using the Marquardt-Levenberg algorithm for non-linear regression with the GraphPad Prism version 3.0a for Macintosh (GraphPad Software, San Diego, Calif.).

[2] = target: T1, MUC-1 gene product, the membrane mucin …; assay: flow cytometry equilibrium binding on MCF7 cells, non-linear regression; 0 h at 37 C
Experimental: as §1
After two final washing steps in 200 μl of FACS buffer, the cells were fixed in PBS buffer containing 2% paraformaldehyde for 15 minutes at room temperature and analysed by flow cytometry.
as §2

[3] = target: T1, MUC-1 gene product, the membrane mucin …; assay: flow cytometry equilibrium binding on MCF7 cells, non-linear regression; after pre-incubation in PBS for 1 h at 37 C
Experimental: as §1, §2

[4] = target: T1, MUC-1 gene product, the membrane mucin …; assay: flow cytometry equilibrium binding on MCF7 cells; reference scFv 4.9M
Experimental: as §1, §2

T1 sequence (P15941 24-1255): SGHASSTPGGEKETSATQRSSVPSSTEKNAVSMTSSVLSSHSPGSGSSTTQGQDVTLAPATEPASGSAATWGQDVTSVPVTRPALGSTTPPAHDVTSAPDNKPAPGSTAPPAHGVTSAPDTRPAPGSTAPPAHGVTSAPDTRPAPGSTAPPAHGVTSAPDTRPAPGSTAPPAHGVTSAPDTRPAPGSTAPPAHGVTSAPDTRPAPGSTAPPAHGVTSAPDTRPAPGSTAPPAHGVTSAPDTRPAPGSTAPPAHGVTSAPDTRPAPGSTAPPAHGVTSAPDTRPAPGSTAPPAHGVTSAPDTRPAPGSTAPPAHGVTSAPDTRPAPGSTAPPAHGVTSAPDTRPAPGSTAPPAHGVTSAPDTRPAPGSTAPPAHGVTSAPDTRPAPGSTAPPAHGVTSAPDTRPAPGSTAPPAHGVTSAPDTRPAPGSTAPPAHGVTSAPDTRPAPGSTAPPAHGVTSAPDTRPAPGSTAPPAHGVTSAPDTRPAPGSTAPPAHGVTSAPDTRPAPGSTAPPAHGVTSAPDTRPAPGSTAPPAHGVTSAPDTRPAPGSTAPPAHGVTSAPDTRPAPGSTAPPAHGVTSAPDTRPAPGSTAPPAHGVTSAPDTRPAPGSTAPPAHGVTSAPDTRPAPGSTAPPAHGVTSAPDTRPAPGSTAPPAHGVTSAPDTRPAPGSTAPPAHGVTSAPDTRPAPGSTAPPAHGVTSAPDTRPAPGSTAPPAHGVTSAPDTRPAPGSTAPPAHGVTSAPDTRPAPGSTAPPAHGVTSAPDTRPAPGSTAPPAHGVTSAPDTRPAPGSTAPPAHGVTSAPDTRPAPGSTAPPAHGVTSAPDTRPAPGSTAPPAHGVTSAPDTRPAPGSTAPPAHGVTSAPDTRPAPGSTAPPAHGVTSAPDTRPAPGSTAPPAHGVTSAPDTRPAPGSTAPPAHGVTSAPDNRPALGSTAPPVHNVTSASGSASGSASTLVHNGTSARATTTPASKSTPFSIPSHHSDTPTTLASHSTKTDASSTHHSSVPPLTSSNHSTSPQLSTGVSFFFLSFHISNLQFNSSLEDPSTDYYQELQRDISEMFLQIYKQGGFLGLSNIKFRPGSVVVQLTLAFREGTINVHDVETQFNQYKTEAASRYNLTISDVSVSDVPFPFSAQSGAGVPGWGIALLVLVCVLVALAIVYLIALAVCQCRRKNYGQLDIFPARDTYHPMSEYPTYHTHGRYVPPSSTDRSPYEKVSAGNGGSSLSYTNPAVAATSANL

B1: huHMFG1 scFv mutant 4.9M (stability engineered huHMFG1-scFv/Clone 4.9) (scFv)
scFv: QVQLVQSGAEVKKPGASVKVSCKASGYTFSAYWIEWVRQAPGKGLEWVGEILPGSNNSRYNEKFKGRVTVTADTSTNTAYMELSSLRSEDTAVYYCARSYDFAWFAYWGQGTLVTVSSGGGGSGGGGSGGGGSDIQMTQSPSSLSASVGDRVTITCKSSQSLLYSSNQKIYLAWYQQKPGKAPKLLIYWASTRESGVPSRFSGSGSGTDFTFTISSLQPEDIATYYCQQYYRYPRTFGQGTKVEIKR
notes: also called scFv 4.9M; HMFG1-scFv 4.9M
fold decrease in antigen binding affinity after 1 hour at 37° C. in PBS [1]: 1.9 fold | Kd [2]: 103 nM | Kd [3]: 195 nM

B2: diabody Db 4.9M (other)
chain 1: QVQLVQSGAEVKKPGASVKVSCKASGYTFSAYWIEWVRQAPGKGLEWVGEILPGSNNSRYNEKFKGRVTVTADTSTNTAYMELSSLRSEDTAVYYCARSYDFAWFAYWGQGTLVTVSSGGGGSDIQMTQSPSSLSASVGDRVTITCKSSQSLLYSSNQKIYLAWYQQKPGKAPKLLIYWASTRESGVPSRFSGSGSGTDFTFTISSLQPEDIATYYCQQYYRYPRTFGQGTKVEIKR
chain 2: B2 chain 1
notes: also called diabody 4.9
Kd [2]: 8 nM | fold higher affinity than the corresponding scFv 4.9M [4]: 13 fold
